The data set concerns the molecule itself. Kind of data set: SEC; Superdex 75 HR 10/30 analytical column calibrated with a Gel Filtration LMW Calibration Kit; absorbance at 280 nm; apparent molecular weights from elution volumes. (In general: SEC sorts molecules by how far they enter the pores of the column.)

B1: RsmA-R44A mutant (natural protein)
chain: MLILTRRVGETLMVGDDVTVTVLGVKGNQVRIGVNAPKEVAVHAEEIYQRIQKEKDQEPNH
notes: RsmA of Pseudomonas aeruginosa with R44A; also called the mutant
As to B1, the binding result is “binds”.

B2: RsmA (regulator of secondary metabolism), His-tagged (natural protein)
chain: not shown
notes: also called CsrA homolog; wild-type RsmA protein; source: purification from E. coli
By stoichiometry N is commonly meant a count of units in the complex or per binding partner. Regarding B2, the “stoichiometry N” value was 2.
